We go through two molecules from US20260049138A1 (Chugai, published 2026).

This assay deals with T1, CD3ε homodimer protein (human, UniProt P07766 23-126, limits assumed, sulfo-tag or biotin label in the ECL assays; amine-coupled to the chip in SPR).
T1 construct: also called human CD3ε homodimer protein; CD3 (CD3ε)
The experiment in a line: SPR Biacore T200; CD3ε homodimer on CM4 chip.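 Note: Single-residue variant antibodies injected as analyte over CD3ε homodimer immobilized by amine coupling, run at 25 °C in HBS-EP+ buffer.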

T1 sequence (P07766 23-126 limits assumed): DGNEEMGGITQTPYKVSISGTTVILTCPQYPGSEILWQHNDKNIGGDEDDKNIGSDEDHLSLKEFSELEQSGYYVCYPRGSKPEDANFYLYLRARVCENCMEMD

B1: CE115HA000 G98S one-arm antibody (antibody, human IgG1, kappa, L234A L235A, N297A, name in Kabat numbering)
heavy: QVQLVESGGGVVQPGRSLRLSCAASGFTFSNAWMHWVRQAPGKGLEWVAQIKAKSNNYATYYAESVKGRFTISRDDSKNSLYLQMNSLKTEDTAVYYCRYVHYSAYYGVDAWGQGTTVTVSSASTKGPSVFPLAPSSKSTSGGTAALGCLVKDYFPEPVTVSWNSGALTSGVHTFPAVLQSSGLYSLSSVVTVPSSSLGTQTYICNVNHKPSNTKVDKKVEPKSCDKTHTCPPCPAPEAAGGPSVFLFPPKPKDTLMISRTPEVTCVVVDVSHEDPEVKFNWYVDGVEVHNAKTKPREEQYASTYRVVSVLTVLHQDWLNGKEYKCKVSNKALPAPIEKTISKAKGQPREPQVYTLPPSRCELTKNQVSLSCAVKGFYPSDIAVEWESNGQPENNYKTTPPVLDSDGSFFLVSKLTVDKSRWQQGNVFSCSVMHEALHNHYTQKSLSLSPDYKDDDDK
chain: EPKSSDKTHTCPPCPAPELLGGPSVFLFPPKPKDTLMISRTPEVTCVVVDVSHEDPEVKFNWYVDGVEVHNAKTKPREEQYNSTYRVVSVLTVLHQDWLNGKEYKCKVSNKALPAPIEKTISKAKGQPREPQVCTLPPSRDELTKNQVSLWCLVKGFYPSDIAVEWESNGQPENNYKTTPPVLDSDGSFFLYSKLTVDKSRWQQGNVFSCSVMHEALHNRYTQKSLSLSP
light: DIVMTQSPLSLPVTPGEPASISCRSSQSLVHSNRNTYLHWYQQKPGQAPRLLIYKVSNRFSGVPDRFSGSGSGTDFTLKISRVEAEDVGVYYCGQGTQVPYTFGQGTKLEIKRTVAAPSVFIFPPSDEQLKSGTASVVCLLNNFYPREAKVQWKVDNALQSGNSQESVTEQDSKDSTYSLSSTLTLSKADYEKHKVYACEVTHQGLSSPVTKSFNRGEC
Regarding B1, the “ratio of amounts bound Z=Y/X (altered form / CE115HA000)” value was 1.01.

B2: CE115HA000 G98T one-arm antibody (antibody, human IgG1, kappa, L234A L235A, N297A, name in Kabat numbering)
heavy: QVQLVESGGGVVQPGRSLRLSCAASGFTFSNAWMHWVRQAPGKGLEWVAQIKAKSNNYATYYAESVKGRFTISRDDSKNSLYLQMNSLKTEDTAVYYCRYVHYTAYYGVDAWGQGTTVTVSSASTKGPSVFPLAPSSKSTSGGTAALGCLVKDYFPEPVTVSWNSGALTSGVHTFPAVLQSSGLYSLSSVVTVPSSSLGTQTYICNVNHKPSNTKVDKKVEPKSCDKTHTCPPCPAPEAAGGPSVFLFPPKPKDTLMISRTPEVTCVVVDVSHEDPEVKFNWYVDGVEVHNAKTKPREEQYASTYRVVSVLTVLHQDWLNGKEYKCKVSNKALPAPIEKTISKAKGQPREPQVYTLPPSRCELTKNQVSLSCAVKGFYPSDIAVEWESNGQPENNYKTTPPVLDSDGSFFLVSKLTVDKSRWQQGNVFSCSVMHEALHNHYTQKSLSLSPDYKDDDDK
chain: EPKSSDKTHTCPPCPAPELLGGPSVFLFPPKPKDTLMISRTPEVTCVVVDVSHEDPEVKFNWYVDGVEVHNAKTKPREEQYNSTYRVVSVLTVLHQDWLNGKEYKCKVSNKALPAPIEKTISKAKGQPREPQVCTLPPSRDELTKNQVSLWCLVKGFYPSDIAVEWESNGQPENNYKTTPPVLDSDGSFFLYSKLTVDKSRWQQGNVFSCSVMHEALHNRYTQKSLSLSP
light: DIVMTQSPLSLPVTPGEPASISCRSSQSLVHSNRNTYLHWYQQKPGQAPRLLIYKVSNRFSGVPDRFSGSGSGTDFTLKISRVEAEDVGVYYCGQGTQVPYTFGQGTKLEIKRTVAAPSVFIFPPSDEQLKSGTASVVCLLNNFYPREAKVQWKVDNALQSGNSQESVTEQDSKDSTYSLSSTLTLSKADYEKHKVYACEVTHQGLSSPVTKSFNRGEC
As for B2, the “ratio of amounts bound Z=Y/X (altered form / CE115HA000)” value stood at 1.05.
